This assay has as its target GST-fused N-terminal fragment of human β-spectrin (GST-hNβSp) (human) (UniProt P11277). The experiment in a line: SPR; Biacore X100; GST-hNβSp (500 nM) captured on a CM5 chip by anti-GST antibody; h4.1R recombinants (GST cleaved) 150-1000 nM as analyte; PBS, 25 °C; regeneration in 10 mM Glycine-Cl pH 2.1.

By Kd is commonly meant the free concentration of one partner at which half of the binding sites on the other are occupied at equilibrium, for simple one-to-one binding. The term kon denotes the rate constant with which the complex forms.

UniProt P11277, sequence (P11277 1-527): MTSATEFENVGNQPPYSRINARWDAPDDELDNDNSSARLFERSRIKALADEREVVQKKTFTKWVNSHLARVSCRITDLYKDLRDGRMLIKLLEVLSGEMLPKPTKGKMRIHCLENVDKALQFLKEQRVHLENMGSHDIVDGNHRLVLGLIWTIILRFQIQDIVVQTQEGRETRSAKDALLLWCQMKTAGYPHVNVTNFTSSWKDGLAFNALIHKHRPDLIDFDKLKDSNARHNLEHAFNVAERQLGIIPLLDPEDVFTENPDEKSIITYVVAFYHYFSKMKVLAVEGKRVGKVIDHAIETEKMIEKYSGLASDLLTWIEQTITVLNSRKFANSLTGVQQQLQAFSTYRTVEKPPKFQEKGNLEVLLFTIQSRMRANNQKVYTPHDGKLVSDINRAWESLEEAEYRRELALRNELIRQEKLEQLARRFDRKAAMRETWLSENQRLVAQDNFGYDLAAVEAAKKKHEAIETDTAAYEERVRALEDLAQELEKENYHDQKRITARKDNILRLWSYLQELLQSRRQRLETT

Consider “human 4.1R with the PE and e14 sequences of alpaca 4.1R (h4.1R[PE14]), cleaved from GST”, for which the dissociation constant (Kd) stood at 121 nM and the association rate constant (kon) amounted to 55100 M⁻¹ s⁻¹.
On the same counts, the results for “human protein 4.1R, wild type (h4.1R WT), cleaved from GST (natural protein)” are 633 nM and 5040 M⁻¹ s⁻¹.

These data come from publication PMC9926112.
